According to patent publication US20220204580A1 (AstraZeneca / MedImmune, published 2022):
Numbered stars: 1 amine (or outer) side, 2 acyl side, 3 side chain; on linkers, the order of the positions; unused ones are H or OH. Bridge positions count the residues as written; N and C are the ends. Square brackets hold non-standard residues; d marks the D form. Side chains are listed from the residue outwards. Ends that are not written are not given here. * marks the point of attachment. C20 diacid = O=C(O)CCCCCCCCCCCCCCCCCCC(=O)*; C18 diacid = O=C(O)CCCCCCCCCCCCCCCCC(=O)*; γGlu = O=C(O)[C@H](CCC(=O)[*:2])N[*:1]; Aib = CC(C)(N)C(=O)O

B1: Peptide 107 (SEQ ID NO: 107) (peptide)
peptide: K([γGlu-C18 diacid])KCNTATCATQRLANFLRHSSNNFGP[Aib]LPPTNVGSNTY-NH2
modifications: disulfide 3-8; N-terminus assumed
SMILES: CC(C)C[C@H](NC(=O)[C@H](CCCNC(=N)N)NC(=O)[C@H](CCC(N)=O)NC(=O)[C@@H](NC(=O)[C@H](C)NC(=O)[C@@H]1CSSC[C@H](NC(=O)[C@H](CCCCN)NC(=O)[C@@H](N)CCCCNC(=O)CC[C@H](NC(=O)CCCCCCCCCCCCCCCCC(=O)O)C(=O)O)C(=O)N[C@@H](CC(N)=O)C(=O)N[C@@H]([C@@H](C)O)C(=O)N[C@@H](C)C(=O)N[C@@H]([C@@H](C)O)C(=O)N1)[C@@H](C)O)C(=O)N[C@@H](C)C(=O)N[C@@H](CC(N)=O)C(=O)N[C@@H](Cc1ccccc1)C(=O)N[C@@H](CC(C)C)C(=O)N[C@@H](CCCNC(=N)N)C(=O)N[C@@H](Cc1c[nH]cn1)C(=O)N[C@@H](CO)C(=O)N[C@@H](CO)C(=O)N[C@@H](CC(N)=O)C(=O)N[C@@H](CC(N)=O)C(=O)N[C@@H](Cc1ccccc1)C(=O)NCC(=O)N1CCC[C@H]1C(=O)NC(C)(C)C(=O)N[C@@H](CC(C)C)C(=O)N1CCC[C@H]1C(=O)N1CCC[C@H]1C(=O)N[C@H](C(=O)N[C@@H](CC(N)=O)C(=O)N[C@H](C(=O)NCC(=O)N[C@@H](CO)C(=O)N[C@@H](CC(N)=O)C(=O)N[C@H](C(=O)N[C@@H](Cc1ccc(O)cc1)C(N)=O)[C@@H](C)O)C(C)C)[C@@H](C)O
B2: Peptide 110 (SEQ ID NO: 110) (peptide)
peptide: K([γGlu-C18 diacid])KCNTATCATQRLANFLVHSSNNF[Aib]PILPPTNVGSNTY-NH2
modifications: disulfide 3-8; N-terminus assumed
SMILES: CC[C@H](C)[C@H](NC(=O)[C@@H]1CCCN1C(=O)C(C)(C)NC(=O)[C@H](Cc1ccccc1)NC(=O)[C@H](CC(N)=O)NC(=O)[C@H](CC(N)=O)NC(=O)[C@H](CO)NC(=O)[C@H](CO)NC(=O)[C@H](Cc1c[nH]cn1)NC(=O)[C@@H](NC(=O)[C@H](CC(C)C)NC(=O)[C@H](Cc1ccccc1)NC(=O)[C@H](CC(N)=O)NC(=O)[C@H](C)NC(=O)[C@H](CC(C)C)NC(=O)[C@H](CCCNC(=N)N)NC(=O)[C@H](CCC(N)=O)NC(=O)[C@@H](NC(=O)[C@H](C)NC(=O)[C@@H]1CSSC[C@H](NC(=O)[C@H](CCCCN)NC(=O)[C@@H](N)CCCCNC(=O)CC[C@H](NC(=O)CCCCCCCCCCCCCCCCC(=O)O)C(=O)O)C(=O)N[C@@H](CC(N)=O)C(=O)N[C@@H]([C@@H](C)O)C(=O)N[C@@H](C)C(=O)N[C@@H]([C@@H](C)O)C(=O)N1)[C@@H](C)O)C(C)C)C(=O)N[C@@H](CC(C)C)C(=O)N1CCC[C@H]1C(=O)N1CCC[C@H]1C(=O)N[C@H](C(=O)N[C@@H](CC(N)=O)C(=O)N[C@H](C(=O)NCC(=O)N[C@@H](CO)C(=O)N[C@@H](CC(N)=O)C(=O)N[C@H](C(=O)N[C@@H](Cc1ccc(O)cc1)C(N)=O)[C@@H](C)O)C(C)C)[C@@H](C)O
B3: Peptide 109 (SEQ ID NO: 109) (peptide)
peptide: K([γGlu-C18 diacid])KCNTATCATQRLANFLVHSSN[Aib]FGPILPPTNVGSNTY-NH2
modifications: disulfide 3-8; N-terminus assumed
SMILES: CC[C@H](C)[C@H](NC(=O)[C@@H]1CCCN1C(=O)CNC(=O)[C@H](Cc1ccccc1)NC(=O)C(C)(C)NC(=O)[C@H](CC(N)=O)NC(=O)[C@H](CO)NC(=O)[C@H](CO)NC(=O)[C@H](Cc1c[nH]cn1)NC(=O)[C@@H](NC(=O)[C@H](CC(C)C)NC(=O)[C@H](Cc1ccccc1)NC(=O)[C@H](CC(N)=O)NC(=O)[C@H](C)NC(=O)[C@H](CC(C)C)NC(=O)[C@H](CCCNC(=N)N)NC(=O)[C@H](CCC(N)=O)NC(=O)[C@@H](NC(=O)[C@H](C)NC(=O)[C@@H]1CSSC[C@H](NC(=O)[C@H](CCCCN)NC(=O)[C@@H](N)CCCCNC(=O)CC[C@H](NC(=O)CCCCCCCCCCCCCCCCC(=O)O)C(=O)O)C(=O)N[C@@H](CC(N)=O)C(=O)N[C@@H]([C@@H](C)O)C(=O)N[C@@H](C)C(=O)N[C@@H]([C@@H](C)O)C(=O)N1)[C@@H](C)O)C(C)C)C(=O)N[C@@H](CC(C)C)C(=O)N1CCC[C@H]1C(=O)N1CCC[C@H]1C(=O)N[C@H](C(=O)N[C@@H](CC(N)=O)C(=O)N[C@H](C(=O)NCC(=O)N[C@@H](CO)C(=O)N[C@@H](CC(N)=O)C(=O)N[C@H](C(=O)N[C@@H](Cc1ccc(O)cc1)C(N)=O)[C@@H](C)O)C(C)C)[C@@H](C)O
B4: Peptide 108 (SEQ ID NO: 108) (peptide)
peptide: K([γGlu-C18 diacid])KCNTATCATQRLANFLVHSSNNFGPI[Aib]PPTNVGSNTY-NH2
modifications: disulfide 3-8; N-terminus assumed
SMILES: CC[C@H](C)[C@H](NC(=O)[C@@H]1CCCN1C(=O)CNC(=O)[C@H](Cc1ccccc1)NC(=O)[C@H](CC(N)=O)NC(=O)[C@H](CC(N)=O)NC(=O)[C@H](CO)NC(=O)[C@H](CO)NC(=O)[C@H](Cc1c[nH]cn1)NC(=O)[C@@H](NC(=O)[C@H](CC(C)C)NC(=O)[C@H](Cc1ccccc1)NC(=O)[C@H](CC(N)=O)NC(=O)[C@H](C)NC(=O)[C@H](CC(C)C)NC(=O)[C@H](CCCNC(=N)N)NC(=O)[C@H](CCC(N)=O)NC(=O)[C@@H](NC(=O)[C@H](C)NC(=O)[C@@H]1CSSC[C@H](NC(=O)[C@H](CCCCN)NC(=O)[C@@H](N)CCCCNC(=O)CC[C@H](NC(=O)CCCCCCCCCCCCCCCCC(=O)O)C(=O)O)C(=O)N[C@@H](CC(N)=O)C(=O)N[C@@H]([C@@H](C)O)C(=O)N[C@@H](C)C(=O)N[C@@H]([C@@H](C)O)C(=O)N1)[C@@H](C)O)C(C)C)C(=O)NC(C)(C)C(=O)N1CCC[C@H]1C(=O)N1CCC[C@H]1C(=O)N[C@H](C(=O)N[C@@H](CC(N)=O)C(=O)N[C@H](C(=O)NCC(=O)N[C@@H](CO)C(=O)N[C@@H](CC(N)=O)C(=O)N[C@H](C(=O)N[C@@H](Cc1ccc(O)cc1)C(N)=O)[C@@H](C)O)C(C)C)[C@@H](C)O
B5: Peptide 117 (SEQ ID NO: 117) (peptide)
peptide: K([γGlu-γGlu-C20 diacid])CNTATCATQRLANFLVHSS[Aib]NFPAILSPTNVGSNTY-NH2
modifications: disulfide 2-7; N-terminus assumed
SMILES: CC[C@H](C)[C@H](NC(=O)[C@H](C)NC(=O)[C@@H]1CCCN1C(=O)[C@H](Cc1ccccc1)NC(=O)[C@H](CC(N)=O)NC(=O)C(C)(C)NC(=O)[C@H](CO)NC(=O)[C@H](CO)NC(=O)[C@H](Cc1c[nH]cn1)NC(=O)[C@@H](NC(=O)[C@H](CC(C)C)NC(=O)[C@H](Cc1ccccc1)NC(=O)[C@H](CC(N)=O)NC(=O)[C@H](C)NC(=O)[C@H](CC(C)C)NC(=O)[C@H](CCCNC(=N)N)NC(=O)[C@H](CCC(N)=O)NC(=O)[C@@H](NC(=O)[C@H](C)NC(=O)[C@@H]1CSSC[C@H](NC(=O)[C@@H](N)CCCCNC(=O)CC[C@H](NC(=O)CC[C@H](NC(=O)CCCCCCCCCCCCCCCCCCC(=O)O)C(=O)O)C(=O)O)C(=O)N[C@@H](CC(N)=O)C(=O)N[C@@H]([C@@H](C)O)C(=O)N[C@@H](C)C(=O)N[C@@H]([C@@H](C)O)C(=O)N1)[C@@H](C)O)C(C)C)C(=O)N[C@@H](CC(C)C)C(=O)N[C@@H](CO)C(=O)N1CCC[C@H]1C(=O)N[C@H](C(=O)N[C@@H](CC(N)=O)C(=O)N[C@H](C(=O)NCC(=O)N[C@@H](CO)C(=O)N[C@@H](CC(N)=O)C(=O)N[C@H](C(=O)N[C@@H](Cc1ccc(O)cc1)C(N)=O)[C@@H](C)O)C(C)C)[C@@H](C)O
B6: Peptide 111 (SEQ ID NO: 111) (peptide)
peptide: K([γGlu-C18 diacid])KCNTATCATQRLANFLVHSSNHFGPILPPTNVGSETY-NH2
modifications: disulfide 3-8; N-terminus assumed
SMILES: CC[C@H](C)[C@H](NC(=O)[C@@H]1CCCN1C(=O)CNC(=O)[C@H](Cc1ccccc1)NC(=O)[C@H](Cc1c[nH]cn1)NC(=O)[C@H](CC(N)=O)NC(=O)[C@H](CO)NC(=O)[C@H](CO)NC(=O)[C@H](Cc1c[nH]cn1)NC(=O)[C@@H](NC(=O)[C@H](CC(C)C)NC(=O)[C@H](Cc1ccccc1)NC(=O)[C@H](CC(N)=O)NC(=O)[C@H](C)NC(=O)[C@H](CC(C)C)NC(=O)[C@H](CCCNC(=N)N)NC(=O)[C@H](CCC(N)=O)NC(=O)[C@@H](NC(=O)[C@H](C)NC(=O)[C@@H]1CSSC[C@H](NC(=O)[C@H](CCCCN)NC(=O)[C@@H](N)CCCCNC(=O)CC[C@H](NC(=O)CCCCCCCCCCCCCCCCC(=O)O)C(=O)O)C(=O)N[C@@H](CC(N)=O)C(=O)N[C@@H]([C@@H](C)O)C(=O)N[C@@H](C)C(=O)N[C@@H]([C@@H](C)O)C(=O)N1)[C@@H](C)O)C(C)C)C(=O)N[C@@H](CC(C)C)C(=O)N1CCC[C@H]1C(=O)N1CCC[C@H]1C(=O)N[C@H](C(=O)N[C@@H](CC(N)=O)C(=O)N[C@H](C(=O)NCC(=O)N[C@@H](CO)C(=O)N[C@@H](CCC(=O)O)C(=O)N[C@H](C(=O)N[C@@H](Cc1ccc(O)cc1)C(N)=O)[C@@H](C)O)C(C)C)[C@@H](C)O

Experiments:
[1] = biological target: T1, human calcitonin receptor (human, UniProt P30988 25-474); assay: cell-based or functional assay
T1 sequence (looked up): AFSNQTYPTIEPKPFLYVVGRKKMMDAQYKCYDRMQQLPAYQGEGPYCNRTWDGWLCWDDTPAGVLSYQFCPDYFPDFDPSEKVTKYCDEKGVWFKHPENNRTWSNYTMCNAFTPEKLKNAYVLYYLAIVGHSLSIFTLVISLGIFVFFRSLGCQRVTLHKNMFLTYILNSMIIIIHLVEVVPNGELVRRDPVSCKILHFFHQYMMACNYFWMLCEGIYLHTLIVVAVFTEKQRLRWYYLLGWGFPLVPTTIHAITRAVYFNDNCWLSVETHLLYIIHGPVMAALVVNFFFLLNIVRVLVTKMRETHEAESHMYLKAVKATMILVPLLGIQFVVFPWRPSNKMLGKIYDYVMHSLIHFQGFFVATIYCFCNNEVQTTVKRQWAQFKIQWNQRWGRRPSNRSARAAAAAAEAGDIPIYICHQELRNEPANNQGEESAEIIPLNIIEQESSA

[2] = biological target: T2, human amylin receptor (calcitonin receptor co-expressed with receptor activity modifying protein, RAMP3) (human, UniProt P30988 25-474; O60896 24-148); assay: cell-based or functional assay
T2 sequence (looked up) 1: T1 sequence (looked up)
T2 sequence (looked up) 2: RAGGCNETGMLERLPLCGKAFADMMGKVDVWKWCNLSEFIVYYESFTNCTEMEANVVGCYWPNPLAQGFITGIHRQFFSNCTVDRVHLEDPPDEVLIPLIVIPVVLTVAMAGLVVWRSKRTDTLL

Row | Binder | EC50 (cAMP production) [1] | EC50 (cAMP production) [2] | Ratio (EC50 hCTR / EC50 hAMYR3) [2]
1 | B1 | 26.3 nM | 1.07 nM | 25
2 | B2 | 0.541 nM | 0.204 nM | 3
3 | B3 | 0.176 nM | 0.082 nM | 2
4 | B4 | 6.81 nM | 0.801 nM | 8
5 | B5 | 3.19 nM | 0.77 nM | 4
6 | B6 | 1.88 nM | 0.403 nM | 5
